The target of series [1] is T1, Pot1pC (Schizosaccharomyces pombe, UniProt O13988 178-389).
T1 sequence: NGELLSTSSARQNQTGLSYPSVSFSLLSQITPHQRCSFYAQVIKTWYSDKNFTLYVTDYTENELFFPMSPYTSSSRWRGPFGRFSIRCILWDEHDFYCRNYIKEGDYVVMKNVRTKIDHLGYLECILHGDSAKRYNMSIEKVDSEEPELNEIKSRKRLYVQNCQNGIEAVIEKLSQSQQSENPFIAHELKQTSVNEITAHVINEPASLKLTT
Description: EMSA.

Series [2] deals with T1, Pot1pC. As to the kind of experiment: EMSA. The source holds these as a separate data set. (Mobility shift assays separate free from complexed probe on a gel.)
A further series addresses T2, Pot1-DBD_V97A (Schizosaccharomyces pombe, UniProt O13988 1-389, V97A).
T2 sequence: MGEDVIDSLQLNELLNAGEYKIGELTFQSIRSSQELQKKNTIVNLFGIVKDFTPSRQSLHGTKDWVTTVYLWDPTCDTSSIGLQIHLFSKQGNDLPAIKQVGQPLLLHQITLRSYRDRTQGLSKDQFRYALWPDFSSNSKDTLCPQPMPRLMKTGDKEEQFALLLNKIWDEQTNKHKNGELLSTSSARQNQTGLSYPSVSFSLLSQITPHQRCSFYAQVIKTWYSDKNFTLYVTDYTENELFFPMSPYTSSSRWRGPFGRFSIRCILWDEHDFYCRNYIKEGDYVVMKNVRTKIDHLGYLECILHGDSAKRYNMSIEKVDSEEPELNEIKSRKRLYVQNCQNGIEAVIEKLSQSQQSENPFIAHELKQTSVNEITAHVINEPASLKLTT
As to the kind of experiment: filter binding.

The target of a further series is T3, Pot1-DBD_Q91A (Schizosaccharomyces pombe, UniProt O13988 1-389, Q91A).
T3 sequence: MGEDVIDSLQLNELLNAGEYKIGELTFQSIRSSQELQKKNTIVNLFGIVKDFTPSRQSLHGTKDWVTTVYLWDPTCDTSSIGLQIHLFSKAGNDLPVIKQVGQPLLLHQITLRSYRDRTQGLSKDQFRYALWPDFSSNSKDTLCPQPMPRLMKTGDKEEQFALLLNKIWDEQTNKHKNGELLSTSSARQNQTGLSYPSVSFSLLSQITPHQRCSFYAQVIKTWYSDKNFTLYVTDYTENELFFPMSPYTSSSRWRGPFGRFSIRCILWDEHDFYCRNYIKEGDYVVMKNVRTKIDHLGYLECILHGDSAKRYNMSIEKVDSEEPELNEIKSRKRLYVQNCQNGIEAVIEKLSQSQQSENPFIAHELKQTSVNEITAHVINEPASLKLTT
Description: filter binding.

The target of another series is T4, Pot1pN_D64A (Schizosaccharomyces pombe, UniProt O13988 1-185, D64A).
T4 sequence: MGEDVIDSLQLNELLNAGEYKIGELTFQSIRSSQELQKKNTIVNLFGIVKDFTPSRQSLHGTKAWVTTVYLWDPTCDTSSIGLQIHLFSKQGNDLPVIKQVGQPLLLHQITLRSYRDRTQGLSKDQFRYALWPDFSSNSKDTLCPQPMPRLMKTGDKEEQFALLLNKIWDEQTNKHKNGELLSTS
Description: filter binding.

For the next series, the target named is T5, Pot1pN (Schizosaccharomyces pombe, UniProt O13988 1-185).
T5 sequence: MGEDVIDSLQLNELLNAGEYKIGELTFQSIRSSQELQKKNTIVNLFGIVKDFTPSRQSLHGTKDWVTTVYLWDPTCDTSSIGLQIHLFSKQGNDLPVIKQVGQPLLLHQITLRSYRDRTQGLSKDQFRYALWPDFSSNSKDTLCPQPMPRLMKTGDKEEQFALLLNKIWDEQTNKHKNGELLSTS
As to the kind of experiment: filter binding.

The next series has as its target T6, Pot1pN_T62A (Schizosaccharomyces pombe, UniProt O13988 1-185, T62A).
T6 sequence: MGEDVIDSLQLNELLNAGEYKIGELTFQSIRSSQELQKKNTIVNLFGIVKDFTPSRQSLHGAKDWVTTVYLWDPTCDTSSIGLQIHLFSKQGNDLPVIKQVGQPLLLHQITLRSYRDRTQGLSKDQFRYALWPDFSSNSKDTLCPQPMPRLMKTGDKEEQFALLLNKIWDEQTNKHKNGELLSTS
As to the kind of experiment: filter binding.

Another series concerns the target T7, Pot1pN_Y115A (Schizosaccharomyces pombe, UniProt O13988 1-185, Y115A).
T7 sequence: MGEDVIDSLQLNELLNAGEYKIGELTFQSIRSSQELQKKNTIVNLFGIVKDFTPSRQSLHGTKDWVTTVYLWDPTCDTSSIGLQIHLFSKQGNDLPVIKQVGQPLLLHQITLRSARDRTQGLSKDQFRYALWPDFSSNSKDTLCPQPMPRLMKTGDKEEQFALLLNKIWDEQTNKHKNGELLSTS
Description: filter binding.

The target in another series is T8, Pot1pN_S123A (Schizosaccharomyces pombe, UniProt O13988 1-185, S123A).
T8 sequence: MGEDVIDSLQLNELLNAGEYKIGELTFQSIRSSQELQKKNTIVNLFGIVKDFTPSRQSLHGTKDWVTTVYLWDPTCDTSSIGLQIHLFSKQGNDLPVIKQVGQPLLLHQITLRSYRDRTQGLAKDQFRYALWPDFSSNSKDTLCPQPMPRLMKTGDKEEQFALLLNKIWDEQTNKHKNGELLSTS
Description: filter binding.

A further series deals with T9, Pot1-DBD (Schizosaccharomyces pombe, UniProt O13988 1-389).
T9 sequence: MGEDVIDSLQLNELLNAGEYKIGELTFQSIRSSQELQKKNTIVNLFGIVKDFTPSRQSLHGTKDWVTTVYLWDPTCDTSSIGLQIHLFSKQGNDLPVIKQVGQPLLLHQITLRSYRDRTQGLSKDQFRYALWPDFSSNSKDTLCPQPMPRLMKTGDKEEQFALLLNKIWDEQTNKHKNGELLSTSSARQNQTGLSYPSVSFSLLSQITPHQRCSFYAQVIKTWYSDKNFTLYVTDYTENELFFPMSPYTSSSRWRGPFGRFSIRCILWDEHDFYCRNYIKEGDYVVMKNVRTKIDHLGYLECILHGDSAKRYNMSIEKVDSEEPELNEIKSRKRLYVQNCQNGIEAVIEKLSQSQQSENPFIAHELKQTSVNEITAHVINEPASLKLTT
Description: filter binding.

Where two headings read alike, the source gives them in different places.

For the molecule GGTTACGGT (ssDNA) [9mer-3'], the affinity in the series with Pot1pC [1], expressed as Kd, was 400 ± 70 nM.

As to GGTTACG (ssDNA) [7mer-3'], the Kd with Pot1pC [2] turned out to be 10500 ± 1900 nM.

Molecule GGTTACGGA (ssDNA) [9mer_T9A] registered a Kd with Pot1pC [1] of 2000 ± 400 nM. Turning to CGTTACGGTTAC (ssDNA) [12mer_G1C], the Kd was 70 ± 7 nM with Pot1-DBD_V97A and 50 ± 6 nM in the series with Pot1-DBD_Q91A. With GGTTACGGTT (ssDNA) [10mer-3'], in the series with Pot1pC [1], binding was characterised by a dissociation constant (Kd) of 300 ± 40 nM. ACGGTTAC (ssDNA) [8mer-5'] displayed a Kd with Pot1pC [2] of 15000 ± 2000 nM. GGTTACGGTTA (ssDNA) [11mer-3'] returned a Kd in the series with Pot1pC [1] of 600 ± 100 nM. As to CGGTTAC (ssDNA) [7mer-5'], in the series with Pot1pC [2], the Kd is 35000 ± 8000 nM. In the series with Pot1-DBD_V97A, GGTTTCGGTTAC (ssDNA) [12mer_A5T] came in with a Kd of 50 ± 4 nM. With GGTTACGCT (ssDNA) [9mer_G8C], the Kd with Pot1pC [1] was 800 ± 200 nM. Take GGTTACGG (ssDNA) [8mer-3']: the Kd in the series with Pot1pC [1] was determined as 1900 ± 300 nM.

Consider CCAATGCCCAATGC (ssDNA) [C-rich complementary sequence], for which, in the series with Pot1pC [1], the binding result was “no binding”. As for GGTTAC (ssDNA) [6mer], the Kd with Pot1pN_D64A amounted to 400 ± 30 nM; with Pot1pN, 30 ± 20 nM; with Pot1pN_T62A it was 500 ± 50 nM; with Pot1pN_Y115A, 300 ± 20 nM; with Pot1pN_S123A, 100 ± 10 nM. With GGTTACCGT (ssDNA) [9mer_G7C], the Kd with Pot1pC [1] amounted to 3000 ± 500 nM.

For the molecule GGTTAGGGT (ssDNA) [9mer_C6G], the Kd with Pot1pC [1] amounted to 300 ± 50 nM. In the case of GGTTACGGTTACGGT (ssDNA) [15mer], the Kd was found to be 0.04 ± 0.004 nM with Pot1-DBD_V97A and 0.04 ± 0.003 nM with Pot1-DBD_Q91A. Also, in the series with Pot1-DBD, the binding result is listed as “binds”. GGTTAGGGTTAC (ssDNA) [12mer_C6G] yielded a dissociation constant Kd with Pot1-DBD_V97A of 100 ± 10 nM. On to CGTTACGGT (ssDNA) [9mer_G1C], for which the Kd in the series with Pot1pC [1] amounted to 1000 ± 100 nM. The same measure, in the same setting: the value for GGATACGGT (ssDNA) [9mer_T3A] was 600 ± 100 nM; that for GGTAACGGT (ssDNA) [9mer_T4A] was 700 ± 300 nM; that for GCTTACGGT (ssDNA) [9mer_G2C] was 3000 ± 600 nM.

For the molecule GGTTACGGTTACGGTTACGGTTAC (ssDNA) [24mer], the Kd was 0.06 ± 0.004 nM in the series with Pot1-DBD_V97A and 0.06 ± 0.003 nM in the series with Pot1-DBD_Q91A.

As usually defined, the Kd is the constant that tells how readily two partners part at equilibrium. A high value points to weaker binding.

Values taken from publication PMC2756145.
